Test [1] addresses T1, Talin F3 W359A (mouse, UniProt P26039 309-405, limits assumed).
T1 construct: domain: F3 sub-domain; As m1, with the mutation; also called talin (W359A) mutant
Briefly: ITC. As for the experimental part:
(§1) Peptide concentrations were typically at 150 to 300 μM while protein concentrations ranged from 25 to 50 μM. For the W359A mutant, the protein concentration was 50 μM and the peptide concentration was 1 mM. Prior to ITC titrations, the peptides and proteins were in buffer consisting of 200 mM Tris, 300 mM NaCl, pH 7.5. All experiments were conducted at 23 degrees Celsius. […] The bottom panel is the binding curve, calculated using the software program Origin.
(§2) Isothermal titration calorimetry (ITC) was performed on a VP-ITC calorimeter (Microcal, Northampton, Mass.). Aliquots (8 μL) of wildtype ([…]p[…]) (SEQ ID NO: 2) or mutant chimeric peptide were injected into the cell containing wildtype or mutant talin F3 domain. Peptide concentrations were typically 150 to 300 μM while protein concentrations ranged from 25 to 50 μM. For the W359A mutant, the protein concentration was 50 μM and the peptide concentration was 1 mM. Prior to ITC titrations, the peptides and proteins were in 200 mM Tris, 300 mM NaCl, pH 7.5. In each experiment 37 injections were made. The experiments were performed at 23° C. All titrations were performed at least twice and with different protein preparations. Experimental data were analyzed using Microcal Origin software.

For test [2], the target named is T2, Talin F3 sub-domain, wild type (mouse, UniProt P26039 309-405, limits assumed).
T2 construct: domain: F3 sub-domain; U-15N labelled for NMR; also called Talin F3 wt; talin F3 domain
T2 sequence (P26039 309-405 limits assumed): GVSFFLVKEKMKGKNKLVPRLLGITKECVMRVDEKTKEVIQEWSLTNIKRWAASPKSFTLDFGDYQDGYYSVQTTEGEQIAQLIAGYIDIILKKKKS
Briefly: ITC, peptide injected into talin F3, 23 C, 200 mM Tris, 300 mM NaCl, pH 7.5. How it is done:
as §1, §2
On the technique in general: Isothermal titration calorimetry measures the heat released or taken up as one component is titrated into another.

The next test concerns the target T3, Talin F3 L325R (mouse, UniProt P26039 309-405, limits assumed).
T3 construct: domain: F3 sub-domain; As m1, with the mutation
The test is described as follows: ITC, peptide injected into talin F3 L325R, 23 C, 200 mM Tris, 300 mM NaCl, pH 7.5. How it is done:
as §1, §2

The target in the next test is T4, Talin F3 Q381V (mouse, UniProt P26039 309-405, limits assumed).
T4 construct: domain: F3 sub-domain; As m1, with the mutation
T4 sequence (P26039 309-405 Q381V limits assumed): as the sequence (P26039 309-405 limits assumed) above, with Q73V counted along it
The test is described as follows: ITC, peptide injected into talin F3 Q381V, 23 C, 200 mM Tris, 300 mM NaCl, pH 7.5. As for the experimental part:
as §1, §2

The target in test [3] is T1, Talin F3 W359A. Briefly: ITC, 1 mM peptide injected into 50 µM talin F3 W359A, 23 C, 200 mM Tris, 300 mM NaCl, pH 7.5. As for the experimental part: as §1, §2

Non-standard residues stand in square brackets, D forms with d. No end group written: not given here. pY = N[C@@H](Cc1ccc(OP(=O)(O)O)cc1)C(=O)O

T1 sequence (P26039 309-405 W359A limits assumed): as the sequence (P26039 309-405 limits assumed) above, with W51A counted along it
T3 sequence (P26039 309-405 L325R limits assumed): as the sequence (P26039 309-405 limits assumed) above, with L17R counted along it

B1: β3/PIPKIγ chimeric peptide, wild type (peptide)
peptide: KKLLITIHDRKEFAKFEEERARAKWV[pY]SPLHYSAR
notes: Integrin β3 tail residues N-terminal of W739, PIPKIγ residues C-terminal of it (numbered 740-746 in the deposited structure); also called β3 chimera; β3-integrin/PIPKIγ peptide
What is called Kd is the free concentration of one partner at which half of the binding sites on the other are occupied at equilibrium, for simple one-to-one binding. Turning to B1, in the test with Talin F3 W359A [1], the “fold reduction of affinity against wild-type talin F3” value was around 1000 fold. The Kd stood at 140 nM in test [2], 212 nM in the test with Talin F3 L325R, 135 nM with Talin F3 Q381V and 106000 nM in the test with Talin F3 W359A [3].

B2: β3/PIPKIγ chimeric peptide F727A (peptide)
peptide: KKLLITIHDRKEAAKFEEERARAKWV[pY]SPLHYSAR
notes: also called β3 chimera F727A; β3-F727A
For B2, in test [2], the affinity, expressed as Kd, was 118 nM. This lies in the sub-micromolar range.

B3: β3/PIPKIγ chimeric peptide F730A (peptide)
peptide: KKLLITIHDRKEFAKAEEERARAKWV[pY]SPLHYSAR
notes: also called β3 chimera F730A; β3-F730A
In test [2], B3 gave a Kd of 105 nM.

Values taken from patent US20100210525A1 (University of California, published 2010).
